Results from the supplement of paper PMC9876800.

System: peptide library, one residue held at a place counted from the S/T acceptor
Test: relative phosphorylation of the sub-library (ratio to the mean residue at this position); higher = residue favoured
Conditions: human
How it was run: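 Relative sub-library phosphorylation, a ratio to the mean residue at that position, was obtained by phosphorimaging and densitometry of spots on streptavidin membranes. Before capture, purified recombinant kinases were incubated for 90 min under kinase-specific conditions with 50 μM biotinylated degenerate peptide sub-libraries and 50 μM ATP spiked with γ-32P-ATP. Each sub-library fixed one residue at one position around a central Ser/Thr.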

Sequence of MAPK10, construct: aa1-426 (P53779 1-426, looked up): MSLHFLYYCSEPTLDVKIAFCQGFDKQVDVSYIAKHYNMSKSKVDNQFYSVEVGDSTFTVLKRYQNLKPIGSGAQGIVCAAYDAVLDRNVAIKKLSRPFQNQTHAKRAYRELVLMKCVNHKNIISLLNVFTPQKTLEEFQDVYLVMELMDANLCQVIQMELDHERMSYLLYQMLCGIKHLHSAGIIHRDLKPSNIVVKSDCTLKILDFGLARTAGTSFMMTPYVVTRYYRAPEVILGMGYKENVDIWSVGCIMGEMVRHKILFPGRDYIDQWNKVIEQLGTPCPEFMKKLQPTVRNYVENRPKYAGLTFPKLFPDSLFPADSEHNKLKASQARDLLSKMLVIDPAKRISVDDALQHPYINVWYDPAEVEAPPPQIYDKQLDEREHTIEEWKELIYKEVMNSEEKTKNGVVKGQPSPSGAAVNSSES

MAPK10, construct: aa1-426 (from UniProt P53779)
relative phosphorylation
Conditions	at +1	at +2	at +3	at +4	at -1	at -2	at -3	at -4	at -5
A fixed	0.471	0.918	1.3	1.17	1.08	2.16	1.22	1.22	1.17
D fixed	0.256	1	1.44	1.34	0.89	0.958	1.36	1.39	1.42
E fixed	0.234	0.725	1.52	1.25	0.855	0.548	1.15	1.28	1.18
F fixed	0.456	0.765	0.929	0.851	0.752	0.582	1	0.854	0.875
G fixed	0.671	1.12	1.38	1.1	1.16	0.785	1.13	1.06	1.15
H fixed	0.281	1.05	1.19	1.12	1.13	0.552	1.08	1.03	0.964
I fixed	0.351	1.26	0.596	0.783	0.662	1.25	0.735	0.705	0.738
K fixed	0.268	0.779	0.611	0.82	0.982	0.548	0.653	0.783	0.754
L fixed	0.366	1.27	0.77	0.913	1.2	1.96	0.853	0.753	0.644
M fixed	0.369	1.76	0.922	0.888	1.27	1.07	1.06	1.01	0.722
N fixed	0.269	1.03	1.07	1.07	0.849	0.554	1.03	0.84	0.928
P fixed	11.5	0.517	0.564	1.5	1.47	2.13	1.2	1.23	1.33
Q fixed	0.259	1.03	1	1.05	1.37	0.747	0.964	1.01	1.07
R fixed	0.269	0.848	0.945	0.893	1.01	0.612	0.883	0.923	1.07
V fixed	0.367	1.48	0.723	0.82	0.781	1.43	0.717	0.843	0.913
W fixed	0.29	0.723	1.03	0.701	0.722	0.587	1.03	1.1	0.967
Y fixed	0.292	0.734	0.999	0.732	0.815	0.518	0.929	0.962	1.1
pThr fixed	0.434	1.94	1.02	1.4	0.52	1.08	1.06	1.17	1.29
pTyr fixed	0.569	1.23	1.59	1.02	0.893	0.598	1.03	1.64	1.41
